A short description of the data set: soluble on expression in E. coli; label from the status in PepcDB or PDB records.
Turning to “GPGSMTVRRMFCFLLPPPSHHRLSRSSLAHAHLPHIRMSAHFAQCRSTHVHTYTHTHVHTHDTLARAACRLCTSSPPVRAREMALLAPKALHKRVKGTNVEVRKEVTDDNTDAQLALLYSIHADDETELRWLHNTLRPERNLVHPSDAFLHGIKALHPAAVFNTFDVKKAKLRRLTKYEKDKETAMKRRKKEVAPTAAYKAAVNPHKTPRTGGAAPADEVRVLSRGMNKAQKARSRTRTAHKSGKVVNGAEAPKGFFTKWKKRKLEKIGRGL”, the “soluble on expression in E. coli” value was “soluble”.

For the sequence “MAHHHHHHMRRTGIRRVAPWVPPPRHDVKVTMPPPPGGEVGGSFGVSIGYSDRIACTPYWKRMALSNYALRMKENATRYPMSEHRPGEYDIRYLPKPYPCTIRNRPLLEVGEPRQIPSIQIPVIFLVNLYNEEKNSWFGRKYETVYVSRQFMREELMPQRYAIYATPEAYALLGLPVVDHGIHKEIPKTPREYEKLLERQKYDEERWKYSIEYLFRKYEAGPPELLDRAEDTWDGTEVLAVSSTAGAARHGEAVQRKGAIKHRKARKIKLF”, the “soluble on expression in E. coli” value is given as “not soluble”. As for “MGSDKIHHHHHHAQTYQQLSEKAIEYIEMDSLSKAEELLLQALKLEPKNAKNAMLFSNLGLVQRRLGEYDKALESYSFALNFAPLAVPILLDRAAINLEMGNTDRAYTDYCQVLDEDKQNKEALLMRAYIYVLRRDYPAARIDYNRLLEIDPQSYSGRLGLATLEQKEGKFKEALEILNKMITATPEDATLYIARADVEREMKHEDLALVDLEEAIRLNPSSADAYLLRGNIYLTQKKKALAKMDFEKAISLGIPPADLHEQLKQCK”, the “soluble on expression in E. coli” value is reported as “not soluble”.

Regarding “MRRMVDHDALHRRWLGALVGARGGAAQPDPAPYGENLLRRWSEPQRRYHTVEHLAAVLDRVDLLAEYADDPDVVRLAAWFHDAVYFPDRSENEERSARLAERALPEAGVSGARTAEVARLVRLTVTHDPADDDRDGRVLCDADLAILAAPPKTYAAYAAAVREEYAFVPDDSFRAGRAAVLRQLLDLPRLFRTPYGEREWEERARENLREELARLDDRGTSGAAQLEHHHHHH”, the “soluble on expression in E. coli” value is listed as “not soluble”.

As for “MGSDKIHHHHHHMNAPLSHSRPMMQPSEDKSLATVFPFAGRVLDETPMLLGEGPTFDPASGTAWWFNILERELHELHLASGRKTVHALPFMGSALAKISDSKQLIASDDGLFLRDTATGVLTLHAELESDLPGNRSNDGRMHPSGALWIGTMGRKAETGAGSIYHVAKGKVTKLFADISIPNSICFSPDGTTGYFVDTKVNRLMRVPLDARTGLPTGKAEVFIDSTGIKGGMDGSVCDAEGHIWNARWGEGAVDRYDTDGNHIARYEVPGKQTTCPAFIGPDASRLLVTSAREHLDDDAITANPQHGLTFELGIEVKGRFEPLYRL”, the “soluble on expression in E. coli” value is recorded as “soluble”. As for “MVSAKDFSGAELYTLEEVQYGKFEARMKMAAASGTVSSMFLYQNGSEIADGRPWVEVDIEVLGKNPGSFQSNIITGKAGAQKTSEKHHAVSPAADQAFHTYGLEWTPNYVRWTVDGQEVRKTEGGQVSNLTGTQGLRFNLWSSESAAWVGQFDESKLPLFQFINWVKVYKYTPGQGEGGSDFTLDWTDNFDTFDGSRWGKGDWTFDGNRVDLTDKNIYSRDGMLILALTRKGQESFNGQVPRD”, the “soluble on expression in E. coli” value is “soluble”. In the case of “MSLVNIEFYESVAASEAKFINDTLIPQFEAEYPGIHVTFVNVGSEDVSKDILAMEASGHVGPIVAGQDNLEIGQLIYSSHGNVLMNLTAMSPALMPSSLIPAASNLVQYEQKVFGGIYFFPFRGNVPLVFYNKTALSDAGISSPPANYTQLLQDAMTIHSKTGKDPIMIQGASTNGGHTGSSTATEMYQMMVQFGGNPLYLNDTGDIHAVEMLYNLSAYFSPDFKTGYWGSYRGLAVGNYSILDYQWPYVYNILTASPYNMTNSTLGVYPGPAGPVNANHVLGGDVLFIPKGATNIPSLEAFIRFLLGAQAQRETLLNLSWVAINQNAYRNLPKSESVIFTALEQAIATGVFLRNPTPWITEWQVIFCNDVFNPLFVTHSKTYSDIPSLLSYAHSQMYSYIAANYGQANATLYNNPNAYAPISEGHHHHHH”, the “soluble on expression in E. coli” value is reported as “not soluble”. The same measure for “MIKTGELKYIEEKIERREDLDEDDIVYMYDEADVNDLGKLARSITDKISGKRVSFVSNIILNYTNICNVRCKFCAFYRKSGEYDAYTMTPDGVIDEIRKYYPYGIRQILIQGGVNPNLDLDYYLTVFRKIRENFTEAGINGLSAAEINFISKKAHLTYEETILKLKEAGLETIPGAGAEILDEDVRVKLGRPRGSGRQWLEIMETAHRLGVKTTATMVYGHIESSMDKARHLISIRNLQKKYHGFLSFTPWNMEPDNTELQKEGILKYRAGAEDVIRNIAISRIVFNYDLPIIQSSWLTNGVEMGQLAILYGANDWGGTIYDEKVIPATGKRVGNLRKEIIIRSIKDLGMVPVERDNLYREIAVYE”: “not soluble”; for “MSLGDSRTKPMEILLVEDGLVDARVTIHALRRSGLHHRLTLVRSVHEAILFMKRTGIFARAPRLDLLLLDMILPDGTGIDVLEEMSELQPDSSRVTTVVLTACEDASYRTRCDELGVYDYIQKPVSEDEFLRVVRDHKKLMIHLQQAAVSAAAGNHSEGHHHHHH”: “soluble”. In the case of “MRVHKVKFLNQHELTKLLALLDLDHGLDWDYFLLLIAKTGLRFGEALGVTPMDFDMAKLTLTINKTWDYKSATGSFAETKNTASVRKVPLDWQVAMQFAAQIKSLPQDKPIFVTDGQRVYNETANDILERKCKRASIPVISIHGLRHTHASLLLYAGVSVGSVARRLGHANMSTTQKTYLHILEHHHHHH”, the “soluble on expression in E. coli” value is recorded as “not soluble”. On to “GMSWEKSGKEGSLLRWYDVMEAERYEYTVGPAGEQFFNGLKQNKIIGSKCSKCGRIFVPARSYCEHCFVKIENYVEINKDEAYVDSYTIIYNDDEGNKLAQPVYIALIRFPNIEGGLLCYAEGNVKVGAKAKILSFQWPLRVKVD”, for which the “soluble on expression in E. coli” value was “soluble”. The same measure for “MGSDKIHHHHHHMTQSHDEPMQTMMWGGNAAFIEGLYESYLQDPSSVGAEWRSYFDGLRGGAQERVHSEVQQRFYELGQHRGPVTVQVTGGASGAQQAAGALVTAYRVYGHISARNNPLKLRGVPTVPELTPEFYGLSEADLSEQVQDSPFSGTLRDVIAQLQDTYCGAIGFEYNYLPANERAWFQERIEKGRGQGRYGLSQDERRRLMQKLNAAEGLELYLKNRYPGVKRFGLEGGESFIPLMDRIIQQAGGRYGVKEVVVGMAHRGRLNTLVNIFGKPSGTLFDEFDGKKKLSDDPDIAGDVKYHMGYSSDVRTPGGPMHLAMAFNPSHLEIVSPVVHGSVRARQDRRGDTERKQVLPITVHGDAAVSGQGVVMETLNFSRLRGFTTGGAIRIVINNQIGFTISDPRDSRSSRYCTDVAKIANAPVMHVNGDDPEAVAFCGDLALAYRQEFGKDVFIDLICFRRNGHNEGDEPRMTQPVMYREIDQHPGTRALYAAQLEKDGVLAAGEGDKLVNDFRDRLDRGETVVEEMENAEQSKLAVDWSGYTNTHWKDDEVATAVPREKLEALGLKLTQVPEGFRVHRTVERTVIKAREAMARGEQPLDWGMGEMLAYASLLDEGFGLRLDGQDSGRGTFVHRHAVLHNQDAVDPLSEEYMALAHLSPEQGRVEVIDSTLSEEAVLAFEYGYSTSEPKALVAWEAQFGDFANGAQAVVDQFLSAGESKWQRLSGLTMLLPHGYEGAGPEHSSARLERYLQLCAQKNMQVVVPSSAAQIFHLLRRQVLRPYRKPLIVMTPKSLLRNKHAMSPLSDLYDGVFHEVIGDAEVQNARRVVLSSGKLHWELTEAREKDKEGYAGTALVRLEQLYPFPAEQVKAELAKHPGAQVVWAQEEPENQGAWLMIWEDLEHCLQPGQTLTHASRPRSASTAVGYTSVHVREQAKVIADALGEPITRQDVDAQVPLTEEASAQG”: “not soluble”; for “MSLKAIVYKGPKMLEVVEIDKPIPKEGQVLVKVNRAGICGGDLGIYKGTHPRAKAPLVFGHEFSGVVEEDGKIFKKGTKVTVNPIYSCGDCVPCNSGDQHVCNTLRLVGIDRDGAMSEYVVVDENKLYELGDEMSDELGALIEPIAVAVHSVREPGYKPGDNAVVFGGGPIGLAIAFVLKKFGCTNLTIIEADDKRIAMGKDFGFDLRDAKGLDLEALKAEKTGGNGFDFVFDCAGVEPVAAQLIKASKVRGKIVIVAGYKTPTMFPVNEGMFKEVAFEFVRVYRDKDYEIAVELAKDEPMFEKLVTHVLPVEQAQEGFDLLLTPGTGAMKVLFKEGHHHHHH”: “not soluble”. Take “MGSDKIHHHHHHMKRRLGLKLYYRRRGHVKPSLLFVIQSHKGEFVKDRLEEYLNNLKIEKKPDSRESWDSYFMRIARMVSERSTCVHRKVGAVIVKDHRILATGYNQPPSKFPHCNEIGCIRDDLEINSGEHQEICYALHAEQNALMQAAKFGIAVNGATIYVTHKPCSICARLIVNAGIKRVVYEKDYPDPLTDFFFKFTGVESVRFVGDEM”: the “soluble on expression in E. coli” value is “not soluble”.

Consider “TLIFDREEKEAGALSGQKGTYVELTDISKNLQNAVIATEDRSFYKNDGINYGRFFLAIVTAGRSGGGSTITQQLAKNAYLSQDQTVERKAKEFFLALELSKKYSKEQILTMYLNNAYFGNGVWGVEDASKKYFGVSASEVSLDQAATLAGMLKGPELYNPLNSV”, for which the “soluble on expression in E. coli” value is on record as “not soluble”. With “MSLKPSDFVKYLQRMIALTDTGLTFTKDPFDRERYEDLRSLLSEMLNQVSDLDAEEVAEVLKPTSAYATPLMDVRAWIVEDEKICLVRRQGEDSWALPGGFGEVGYSPTENILKEIEEETGFKAKVERLLAVFDTNRFQLQSKQYAKFVFECKLLDGQFQENQEIAALQFFTIDQLPNLSEKRITKEQIEILWQVYQGQREQYLDEGGSHHHHHH”, the “soluble on expression in E. coli” value was “soluble”.

Take “MELWLVRHGETLWNREGRLLGWTDLPLTAEGEAQARRLKGALPSLPAFSSDLLRARRTAELAGFSPRLYPELREIHFGALEGALWETMDPRYKEALLRFQGFHPPGGESLSAFQERVFRFLEGLKAPAVLFTHGGVVRAVLRALGEDGLVPPGSAVAVDWPRRVLVRLALDGEEATG”: the “soluble on expression in E. coli” value is reported as “soluble”. For “GPGSMTGLTVPRGEYTNVVVHHRMVGVSAFDDQFNCDWNFELYGVAERIKEHHGGAISDGFRMWLNRVEPGFIVRNFKQSLREAFGLTPPSALLMTSEEDIPHHEVTVYYDFEPAALRFPLLNIRLGE”, the “soluble on expression in E. coli” value is “soluble”. Consider “MGSDKIHHHHHHMSNESCKDGKIWAYLKNINVYIDQNKILSDINLNLRYGENILILGPNGSGKSTFLKLLNRSIYPITTKDSSFKLFNKENINIWDLRKKIGFLFKEMEQRVNNGVTLYDVISSGFSGIFNSKYTNLLSESKKIKINNLINTWELGDIIYNEFQTLSDGQKRRALLARALVYEPNILVLDEPFCNLDLKSNIILNQNLNELIKHSVNLIYVTHNVESILPKTNRVILIKEGKILNDGSPSELINTKTLSDLFNISIKVIEQEGYWRMIPLSS”, for which the “soluble on expression in E. coli” value is “not soluble”. The same measure for “MGSDKIHHHHHHMKDGQMLTEWPSHLPWLNQSQNDFTFPSDTYLLLYFWSMSCPNCHQFTDKVLQDIKDMNVKVIGVHVPYIEEEKSMEVVLTYALDRGLAIPIVLDQNYEIVTTCHVQGIPSFCLLSQYGQIITKTMGDVSWDKMLKKIAGL”: “not soluble”; for “MGSDKIHHHHHHMSQDVPGNLLDEIRILRSPKGYLYAGLPKFRALFGRDSIISSIQLIDLFPDIAQNTVIYLKDLQGRKLDYSIGEYPGKILHEYYDDEKIFLDRKRSIPWLNSRINYFSVDSTPLFILLIKNLFLRNLIDIEQFKDSIMMAMQFLIAYSSSDGLITYDKALLGAGLMSQSWRDGVGDIMDRLKSPVATVGVQGYFYESADFVLNLFPDSLIEESLPDLKDFYSKMREILENKFWLEETGYYGLAVDGDGVIEQAATSDPGHLIGSGILTRSRERDVIDRLFESDLLTDYGIRTLSAKDPRFDPKAYQRGSIWPQDNWIIADGIKRRGYLKEYRELRERLIAAYEYYGRMPEYFGVDRYGKIMDLSKLRIKPCYPQAWSTGAIINFVTFK”: “not soluble”.

The record behind these values is the DeepSol protein solubility set.
